According to patent publication US20120316071A1 (published 2012):
Positions count from the first letter of the chain named. Numbers in names are those of the source. Each block holds one binder with its values, some of them ahead of it.

What was measured:
[1] = target: T1, rHuman HGF R/c-MET/Fc Chimera, CF (R&D Systems Cat#358-MT/CF) (human, UniProt P08581 25-932); test: MSD multispot ECL, antigen spotted on plate; Fab 0.00797 uM; blank spot 364
T1 construct: Bought recombinant protein; also called HGF R/Fc; hepatocyte growth factor receptor; Fc part of the bought chimera not given

[2] = target: T2, rHuman Erythropoietin R/Fc Chimera, CF (R&D Systems Cat#963-ER) (human, UniProt P19235 25-250); test: ECL multispot (MSD), antigen spotted on plate, Fab at 50.00 (column head: Fab [µM])
T2 construct: Bought recombinant protein; also called EPO R; EPO R/Fc; Fc part of the bought chimera not given
T2 sequence (looked up): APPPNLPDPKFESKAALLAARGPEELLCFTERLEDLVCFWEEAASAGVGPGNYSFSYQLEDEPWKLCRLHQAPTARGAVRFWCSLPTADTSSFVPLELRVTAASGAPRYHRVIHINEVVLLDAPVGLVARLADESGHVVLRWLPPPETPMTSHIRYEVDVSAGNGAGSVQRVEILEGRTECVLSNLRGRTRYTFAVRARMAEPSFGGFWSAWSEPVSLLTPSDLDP

[3] = target: T3, Recombinant Human DLL4 (R&D Systems Cat#1506-D4/CF) (human, UniProt Q9NR61 27-524); test: as above
T3 construct: Bought recombinant protein; also called delta-like protein 4; rHuman DLL4

[4] = target: T4, rHuman ErbB2/Fc Chimera, CF (R&D Systems Cat#1129-ER) (human, UniProt P04626 23-652); test: as above
T4 construct: Bought recombinant protein; Fc part of the bought chimera not given

[5] = target: T5, rHuman EGF R/Fc Chimera, CF (R&D Systems Cat#344-ER) (human, UniProt P00533 25-645); test: as above
T5 construct: Bought recombinant protein; Fc part of the bought chimera not given

[6] = target: T6, rHuman HGF R/c-MET/Fc Chimera, CF (R&D Systems Cat#358-MT/CF) (human, UniProt P08581 25-932); test: as above
T6 construct: Bought recombinant protein; also called HGF R/Fc; Fc part of the bought chimera not given

[7] = target: T7, rHuman Notch-1/Fc Chimera, CF (R&D Systems Cat#3647-TK) (human, UniProt P46531 19-526); test: as above
T7 construct: Bought recombinant chimera; Fc part of the bought chimera not given

[8] = target: T8, rHuman CD44/Fc Chimera, CF (R&D Systems Cat#3660-CD) (human, UniProt P16070 21-220); test: as above
T8 construct: Bought recombinant protein; Fc part of the bought chimera not given

[9] = target: T9, rHuman IGF-1 sR (insulin-like growth factor-1 soluble receptor), CF (R&D Systems Cat#391-GR) (human, UniProt P08069 31-932); test: as above
T9 construct: Bought recombinant soluble receptor

[10] = target: T10, rHuman P-Cadherin/Fc Chimera, CF (R&D Systems Cat#861-PC) (human, UniProt P22223 108-654); test: as above
T10 construct: Bought recombinant protein; Fc part of the bought chimera not given

[11] = target: T2, rHuman Erythropoietin R/Fc Chimera, CF …; test: ECL multispot (MSD), antigen spotted on plate, Fab at 500.00 (column head: Fab [µM])
[12] = target: T4, rHuman ErbB2/Fc Chimera, CF (R&D …); test: as above
[13] = target: T5, rHuman EGF R/Fc Chimera, CF (R&D …); test: as above
[14] = target: T6, rHuman HGF R/c-MET/Fc Chimera, CF (R&D …); test: as above
[15] = target: T7, rHuman Notch-1/Fc Chimera, CF (R&D …); test: as above
[16] = target: T8, rHuman CD44/Fc Chimera, CF (R&D Systems …); test: as above
[17] = target: T9, rHuman IGF-1 sR (insulin-like growth …); test: as above
[18] = target: T10, rHuman P-Cadherin/Fc Chimera, CF (R&D …); test: as above

ECL signal [1]: 419
B1: Fab VH4-34_IGHD7-27*01_IGHJ4*01 & L5_IGKJ1*01 (Fab, V domains shown)
VH: QVQLQQWGAGLLKPSETLSLTCAVYGGSFSGYYWSWIRQPPGKGLEWIGEINHSGSTNYNPSLKSRVTISVDTSKNQFSLKLSSVTAADTAVYYCARANWGDYFDYWGQGTLVTVSS
VL: DIQMTQSPSSVSASVGDRVTITCRASQGISSWLAWYQQKPGKAPKLLIYAASSLQSGVPSRFSGSGSGTDFTLTISSLQPEDFATYYCQQANSFPPWTFGQGTKVEIKR
notes: Germline library Fab expressed in E. coli; VH was cloned into Plasmid A, which adds CH1 with His6 and Flag tags

signal/noise ratio (ECL) [2]: 0.9
signal/noise ratio (ECL) [3]: 33.5
signal/noise ratio (ECL) [4]: 0.6
signal/noise ratio (ECL) [5]: 0.9
signal/noise ratio (ECL) [6]: 0.6
signal/noise ratio (ECL) [7]: 0.6
signal/noise ratio (ECL) [8]: 0.3
signal/noise ratio (ECL) [9]: 0.5
signal/noise ratio (ECL) [10]: 0.7
signal/noise ratio (ECL) [11]: 0.8
signal/noise ratio (ECL) [12]: 0.3
signal/noise ratio (ECL) [13]: 0.7
signal/noise ratio (ECL) [14]: 0.3
signal/noise ratio (ECL) [15]: 0.8
signal/noise ratio (ECL) [16]: 0.4
signal/noise ratio (ECL) [17]: 0.4
signal/noise ratio (ECL) [18]: 0.2
B2: Fab VH1-46_IGHD6-6*01_IGHJ1*01 & L6_IGKJ1*01 (Fab, V domains shown)
VH: QVQLVQSGAEVKKPGASVKVSCKASGYTFTSYYMHWVRQAPGQGLEWMGIINPSGGSTSYAQKFQGRVTMTRDTSTSTVYMELSSLRSEDTAVYYCAREEYSSSSAEYFQHWGQGTLVTVSS
VL: not shown
notes: Tested as a Fab expressed in E. coli; The heavy chain came from Plasmid A (CH1 with His6 and Flag tags) and the kappa light chain from Plasmid C (kappa CL); also called Wt; wildtype

signal/noise ratio (ECL) [2]: 1.6
signal/noise ratio (ECL) [3]: 274
signal/noise ratio (ECL) [4]: 0.7
signal/noise ratio (ECL) [5]: 1
signal/noise ratio (ECL) [6]: 0.7
signal/noise ratio (ECL) [7]: 1.1
signal/noise ratio (ECL) [8]: 0.7
signal/noise ratio (ECL) [9]: 0.5
signal/noise ratio (ECL) [10]: 0.9
signal/noise ratio (ECL) [11]: 10.4
signal/noise ratio (ECL) [12]: 1.7
signal/noise ratio (ECL) [13]: 5.5
signal/noise ratio (ECL) [14]: 2.2
signal/noise ratio (ECL) [15]: 4.2
signal/noise ratio (ECL) [16]: 2.4
signal/noise ratio (ECL) [17]: 1.5
signal/noise ratio (ECL) [18]: 3.4
B3: Fab VH1-46_IGHD6-6*01_IGHJ1*01 S102A/S103P/S104F (APF) & L6_IGKJ1*01 (Fab, V domains shown)
VH: B2 VH with S102A, S103P, S104F
VL: not shown
notes: Tested as a Fab expressed in E. coli; the constant parts (CH1 with His6/Flag tags, kappa CL) come from Plasmids A and C; also called APF triple mutant; H:APF & L:wt
